From US20230406885A1, “CYCLIC PEPTIDES FOR TRAPPING INTERLEUKIN-1 BETA” (MERCK SHARP & DOHME LLC, priority 2022, published 2023) come the findings set out here.

*1 amine or outer side, *2 acyl side, *3 side chain or, on linkers, in order; H or OH if unused. [ ]: non-standard residue; d: D form. 3AzaPhe4AcPip = (S)-3-(6-(4-acetylpiperazin-1-yl)pyridin-3-yl)-2-aminopropanoic acid, CC(=O)N1CCN(c2ccc(C[C@H](N[*:1])C(=O)[*:2])cn2)CC1; Prot4NHCH2CH2Ph = (2S,4R)-4-(phenethylamino)pyrrolidine-2-carboxylic acid, O=C([C@@H]1C[C@@H](N(CCc2ccccc2)[*:3])CN1[*:1])[*:2]; Prot4NHBn = (2S,4R)-4-(benzylamino)pyrrolidine-2-carboxylic acid, O=C([C@@H]1C[C@@H](N(Cc2ccccc2)[*:3])CN1[*:1])[*:2]; Prot4NHEt = (2S,4R)-4-(ethylamino)pyrrolidine-2-carboxylic acid, CCN([C@@H]1C[C@@H](C(=O)[*:2])N([*:1])C1)[*:3]; Pro(trans-4-NH2) = O=C([C@@H]1C[C@@H](N[*:3])CN1[*:1])[*:2]; Trp(βS-Me,4-F) = C[C@@H](c1c[nH]c2cccc(F)c12)[C@H](N)C(=O)O; Bip(4'-COOH) = N[C@@H](Cc1ccc(-c2ccc(C(=O)O)cc2)cc1)C(=O)O; Phe(3-CH2NH2) = O=C([C@H](Cc1cccc(CN[*:3])c1)N[*:1])[*:2]; 1Nal(3S-Me) = C[C@@H](c1cccc2ccccc12)[C@H](N)C(=O)O; mBip = (S)-2-amino-3-(3-phenylphenyl)propanoic acid; Phe(3-allyloxy) = C=CCOc1cccc(C[C@H](N)C(=O)O)c1; Phe(4-COOH) = N[C@@H](Cc1ccc(C(=O)O)cc1)C(=O)O; hTyr = N[C@@H](CCc1ccc(O)cc1)C(=O)O; dDab = NCC[C@@H](N)C(=O)O; dNMeA = CN[C@H](C)C(=O)O; Nva = CCC[C@H](N)C(=O)O; Dap = NC[C@H](N)C(=O)O

The labels stand for the following.
B1: SEQ ID NO: 81 (peptide)
peptide: cyclo([Bip(4'-COOH)]W[Phe(4-COOH)]G[Pro(trans-4-NH2)][Trp(βS-Me,4-F)]N[dNMeA]G[Bip(4'-COOH)]KL[dDab][hTyr])
SMILES: CC(C)C[C@@H]1NC(=O)[C@H](CCCCN)NC(=O)[C@H](Cc2ccc(-c3ccc(C(=O)O)cc3)cc2)NC(=O)CNC(=O)[C@@H](C)N(C)C(=O)[C@H](CC(N)=O)NC(=O)[C@H]([C@@H](C)c2c[nH]c3cccc(F)c23)NC(=O)[C@@H]2C[C@@H](N)CN2C(=O)CNC(=O)[C@H](Cc2ccc(C(=O)O)cc2)NC(=O)[C@H](Cc2c[nH]c3ccccc23)NC(=O)[C@H](Cc2ccc(-c3ccc(C(=O)O)cc3)cc2)NC(=O)[C@H](CCc2ccc(O)cc2)NC(=O)[C@@H](CCN)NC1=O
B2: SEQ ID NO: 79 (peptide)
peptide: cyclo([Bip(4'-COOH)]W[Phe(4-COOH)]G[Pro(trans-4-NH2)][Trp(βS-Me,4-F)]D[dNMeA]G[Bip(4'-COOH)]W[Nva][dA]A)
SMILES: CCC[C@@H]1NC(=O)[C@H](Cc2c[nH]c3ccccc23)NC(=O)[C@H](Cc2ccc(-c3ccc(C(=O)O)cc3)cc2)NC(=O)CNC(=O)[C@@H](C)N(C)C(=O)[C@H](CC(=O)O)NC(=O)[C@H]([C@@H](C)c2c[nH]c3cccc(F)c23)NC(=O)[C@@H]2C[C@@H](N)CN2C(=O)CNC(=O)[C@H](Cc2ccc(C(=O)O)cc2)NC(=O)[C@H](Cc2c[nH]c3ccccc23)NC(=O)[C@H](Cc2ccc(-c3ccc(C(=O)O)cc3)cc2)NC(=O)[C@H](C)NC(=O)[C@@H](C)NC1=O
B3: SEQ ID NO: 80 (peptide)
peptide: cyclo([Bip(4'-COOH)]W[Phe(4-COOH)]G[Pro(trans-4-NH2)][Trp(βS-Me,4-F)]N[dNMeA]G[Bip(4'-COOH)]KL[dA][hTyr])
SMILES: CC(C)C[C@@H]1NC(=O)[C@H](CCCCN)NC(=O)[C@H](Cc2ccc(-c3ccc(C(=O)O)cc3)cc2)NC(=O)CNC(=O)[C@@H](C)N(C)C(=O)[C@H](CC(N)=O)NC(=O)[C@H]([C@@H](C)c2c[nH]c3cccc(F)c23)NC(=O)[C@@H]2C[C@@H](N)CN2C(=O)CNC(=O)[C@H](Cc2ccc(C(=O)O)cc2)NC(=O)[C@H](Cc2c[nH]c3ccccc23)NC(=O)[C@H](Cc2ccc(-c3ccc(C(=O)O)cc3)cc2)NC(=O)[C@H](CCc2ccc(O)cc2)NC(=O)[C@@H](C)NC1=O
B4: SEQ ID NO: 83 (peptide)
peptide: cyclo([Bip(4'-COOH)]W[Phe(4-COOH)]G[Prot4NHCH2CH2Ph][1Nal(3S-Me)]D[dNMeA]G[Bip(4'-COOH)]W[Dap][dA][hTyr])
SMILES: C[C@@H]1C(=O)NCC(=O)N[C@@H](Cc2ccc(-c3ccc(C(=O)O)cc3)cc2)C(=O)N[C@@H](Cc2c[nH]c3ccccc23)C(=O)N[C@@H](CN)C(=O)N[C@H](C)C(=O)N[C@@H](CCc2ccc(O)cc2)C(=O)N[C@@H](Cc2ccc(-c3ccc(C(=O)O)cc3)cc2)C(=O)N[C@@H](Cc2c[nH]c3ccccc23)C(=O)N[C@@H](Cc2ccc(C(=O)O)cc2)C(=O)NCC(=O)N2C[C@H](NCCc3ccccc3)C[C@H]2C(=O)N[C@@H]([C@@H](C)c2cccc3ccccc23)C(=O)N[C@@H](CC(=O)O)C(=O)N1C
B5: SEQ ID NO: 74 (peptide)
peptide: cyclo([Bip(4'-COOH)]W[Phe(4-COOH)]G[Pro(trans-4-NH2)][Trp(βS-Me,4-F)]D[dNMeA]G[Bip(4'-COOH)][Phe(3-CH2NH2)]S[dA][hTyr])
SMILES: C[C@@H]1C(=O)NCC(=O)N[C@@H](Cc2ccc(-c3ccc(C(=O)O)cc3)cc2)C(=O)N[C@@H](Cc2cccc(CN)c2)C(=O)N[C@@H](CO)C(=O)N[C@H](C)C(=O)N[C@@H](CCc2ccc(O)cc2)C(=O)N[C@@H](Cc2ccc(-c3ccc(C(=O)O)cc3)cc2)C(=O)N[C@@H](Cc2c[nH]c3ccccc23)C(=O)N[C@@H](Cc2ccc(C(=O)O)cc2)C(=O)NCC(=O)N2C[C@H](N)C[C@H]2C(=O)N[C@@H]([C@@H](C)c2c[nH]c3cccc(F)c23)C(=O)N[C@@H](CC(=O)O)C(=O)N1C
B6: SEQ ID NO: 76 (peptide)
peptide: cyclo([Bip(4'-COOH)]W[Phe(4-COOH)]G[Pro(trans-4-NH2)][Trp(βS-Me,4-F)]D[dNMeA]G[Bip(4'-COOH)][Phe(3-allyloxy)]L[dA][hTyr])
SMILES: C=CCOc1cccc(C[C@@H]2NC(=O)[C@H](Cc3ccc(-c4ccc(C(=O)O)cc4)cc3)NC(=O)CNC(=O)[C@@H](C)N(C)C(=O)[C@H](CC(=O)O)NC(=O)[C@H]([C@@H](C)c3c[nH]c4cccc(F)c34)NC(=O)[C@@H]3C[C@@H](N)CN3C(=O)CNC(=O)[C@H](Cc3ccc(C(=O)O)cc3)NC(=O)[C@H](Cc3c[nH]c4ccccc34)NC(=O)[C@H](Cc3ccc(-c4ccc(C(=O)O)cc4)cc3)NC(=O)[C@H](CCc3ccc(O)cc3)NC(=O)[C@@H](C)NC(=O)[C@H](CC(C)C)NC2=O)c1
B7: SEQ ID NO: 77 (peptide)
peptide: cyclo([Bip(4'-COOH)]W[Phe(4-COOH)]G[Pro(trans-4-NH2)][Trp(βS-Me,4-F)]D[dNMeA]G[Bip(4'-COOH)]WG[dDab][hTyr])
SMILES: C[C@@H]1C(=O)NCC(=O)N[C@@H](Cc2ccc(-c3ccc(C(=O)O)cc3)cc2)C(=O)N[C@@H](Cc2c[nH]c3ccccc23)C(=O)NCC(=O)N[C@H](CCN)C(=O)N[C@@H](CCc2ccc(O)cc2)C(=O)N[C@@H](Cc2ccc(-c3ccc(C(=O)O)cc3)cc2)C(=O)N[C@@H](Cc2c[nH]c3ccccc23)C(=O)N[C@@H](Cc2ccc(C(=O)O)cc2)C(=O)NCC(=O)N2C[C@H](N)C[C@H]2C(=O)N[C@@H]([C@@H](C)c2c[nH]c3cccc(F)c23)C(=O)N[C@@H](CC(=O)O)C(=O)N1C
B8: SEQ ID NO: 82 (peptide)
peptide: cyclo([Bip(4'-COOH)]W[Phe(4-COOH)]G[Prot4NHBn][1Nal(3S-Me)]D[dNMeA]G[Bip(4'-COOH)]W[Dap][dA][hTyr])
SMILES: C[C@@H]1C(=O)NCC(=O)N[C@@H](Cc2ccc(-c3ccc(C(=O)O)cc3)cc2)C(=O)N[C@@H](Cc2c[nH]c3ccccc23)C(=O)N[C@@H](CN)C(=O)N[C@H](C)C(=O)N[C@@H](CCc2ccc(O)cc2)C(=O)N[C@@H](Cc2ccc(-c3ccc(C(=O)O)cc3)cc2)C(=O)N[C@@H](Cc2c[nH]c3ccccc23)C(=O)N[C@@H](Cc2ccc(C(=O)O)cc2)C(=O)NCC(=O)N2C[C@H](NCc3ccccc3)C[C@H]2C(=O)N[C@@H]([C@@H](C)c2cccc3ccccc23)C(=O)N[C@@H](CC(=O)O)C(=O)N1C
B9: SEQ ID NO: 84 (peptide)
peptide: cyclo([Bip(4'-COOH)]W[Phe(4-COOH)]G[Prot4NHEt][1Nal(3S-Me)]D[dNMeA]G[Bip(4'-COOH)]W[Dap][dA][hTyr])
SMILES: CCN[C@@H]1C[C@H]2C(=O)N[C@@H]([C@@H](C)c3cccc4ccccc34)C(=O)N[C@@H](CC(=O)O)C(=O)N(C)[C@H](C)C(=O)NCC(=O)N[C@@H](Cc3ccc(-c4ccc(C(=O)O)cc4)cc3)C(=O)N[C@@H](Cc3c[nH]c4ccccc34)C(=O)N[C@@H](CN)C(=O)N[C@H](C)C(=O)N[C@@H](CCc3ccc(O)cc3)C(=O)N[C@@H](Cc3ccc(-c4ccc(C(=O)O)cc4)cc3)C(=O)N[C@@H](Cc3c[nH]c4ccccc34)C(=O)N[C@@H](Cc3ccc(C(=O)O)cc3)C(=O)NCC(=O)N2C1
B10: SEQ ID NO: 8 (peptide)
peptide: cyclo([3AzaPhe4AcPip]W[Phe(4-COOH)]G[Pro(trans-4-NH2)][Trp(βS-Me,4-F)]D[dNMeA]G[Bip(4'-COOH)]WG[dDab][hTyr])
SMILES: CC(=O)N1CCN(c2ccc(C[C@@H]3NC(=O)[C@H](CCc4ccc(O)cc4)NC(=O)[C@@H](CCN)NC(=O)CNC(=O)[C@H](Cc4c[nH]c5ccccc45)NC(=O)[C@H](Cc4ccc(-c5ccc(C(=O)O)cc5)cc4)NC(=O)CNC(=O)[C@@H](C)N(C)C(=O)[C@H](CC(=O)O)NC(=O)[C@H]([C@@H](C)c4c[nH]c5cccc(F)c45)NC(=O)[C@@H]4C[C@@H](N)CN4C(=O)CNC(=O)[C@H](Cc4ccc(C(=O)O)cc4)NC(=O)[C@H](Cc4c[nH]c5ccccc45)NC3=O)cn2)CC1
B11: SEQ ID NO: 78 (peptide)
peptide: cyclo([Bip(4'-COOH)]W[Phe(4-COOH)]G[Pro(trans-4-NH2)][Trp(βS-Me,4-F)]D[dNMeA]G[Bip(4'-COOH)]WL[dA][hTyr])
SMILES: CC(C)C[C@@H]1NC(=O)[C@H](Cc2c[nH]c3ccccc23)NC(=O)[C@H](Cc2ccc(-c3ccc(C(=O)O)cc3)cc2)NC(=O)CNC(=O)[C@@H](C)N(C)C(=O)[C@H](CC(=O)O)NC(=O)[C@H]([C@@H](C)c2c[nH]c3cccc(F)c23)NC(=O)[C@@H]2C[C@@H](N)CN2C(=O)CNC(=O)[C@H](Cc2ccc(C(=O)O)cc2)NC(=O)[C@H](Cc2c[nH]c3ccccc23)NC(=O)[C@H](Cc2ccc(-c3ccc(C(=O)O)cc3)cc2)NC(=O)[C@H](CCc2ccc(O)cc2)NC(=O)[C@@H](C)NC1=O
B12: SEQ ID NO: 73 (peptide)
peptide: cyclo([Bip(4'-COOH)]W[Phe(4-COOH)]G[Pro(trans-4-NH2)][Trp(βS-Me,4-F)]D[dNMeA]G[Bip(4'-COOH)][Phe(3-CH2NH2)]L[dA][hTyr])
SMILES: CC(C)C[C@@H]1NC(=O)[C@H](Cc2cccc(CN)c2)NC(=O)[C@H](Cc2ccc(-c3ccc(C(=O)O)cc3)cc2)NC(=O)CNC(=O)[C@@H](C)N(C)C(=O)[C@H](CC(=O)O)NC(=O)[C@H]([C@@H](C)c2c[nH]c3cccc(F)c23)NC(=O)[C@@H]2C[C@@H](N)CN2C(=O)CNC(=O)[C@H](Cc2ccc(C(=O)O)cc2)NC(=O)[C@H](Cc2c[nH]c3ccccc23)NC(=O)[C@H](Cc2ccc(-c3ccc(C(=O)O)cc3)cc2)NC(=O)[C@H](CCc2ccc(O)cc2)NC(=O)[C@@H](C)NC1=O

The target of the experiment is Recombinant human IL-1β (BioLegend 579404) (human, UniProt P01584 117-269). The experiment can be described thus: cell-based or functional assay.
B1: the “MRC5 IC50” value came to 0.255 nM.

Take B2: the “MRC5 IC50” value worked out at 0.189 nM.

As to B3, the “MRC5 IC50” value came out at 0.291 nM.

With B4, the “MRC5 IC50” value worked out at 0.0329 nM.

For cyclo([Bip(4'-COOH)]W[Phe(4-COOH)]G[Pro(trans-4-NH2)][Trp(βS-Me,4-F)]D[dNMeA]G[Bip(4'-COOH)][mBip]L[dA][hTyr]) [SEQ ID NO: 75], the “MRC5 IC50” value worked out at 0.165 nM.

For the molecule B5, the “MRC5 IC50” value was determined as 0.296 nM.

As for B6, the “MRC5 IC50” value amounted to 0.122 nM.

Turning to B7, the “MRC5 IC50” value is 0.0601 nM.

Regarding B8, the “MRC5 IC50” value was 0.0157 nM.

On to B9, for which the “MRC5 IC50” value amounted to 0.0258 nM.

Consider B10, for which the “MRC5 IC50” value stood at 0.14 nM.

As to B11, the “MRC5 IC50” value turned out to be 0.0732 nM.

On to B12, for which the “MRC5 IC50” value is 0.0509 nM.
